Test results taken from patent publication US20090004183A1 (published 2009).

Target: T1, C3b deposited on zymosan or Sepharose 4B (human, UniProt P01024 23-667; P01024 749-1663, limits assumed, covalently deposited on zymosan A or Sepharose 4B by opsonization in normal human serum)
T1 construct: The whole C3 entry is named; The deposit may include iC3b; also called C3b-opsonized zymosan; C3b-zymosan
Assay: flow cytometry on zymosan opsonized in 50% NHS
Procedure: After 30 minutes, the reactions were quenched with EDTA, washed and samples without the mAbs were probed with the respective A1488 mAbs.

T1 sequence (P01024 23-667 limits assumed, chain 1 of 2): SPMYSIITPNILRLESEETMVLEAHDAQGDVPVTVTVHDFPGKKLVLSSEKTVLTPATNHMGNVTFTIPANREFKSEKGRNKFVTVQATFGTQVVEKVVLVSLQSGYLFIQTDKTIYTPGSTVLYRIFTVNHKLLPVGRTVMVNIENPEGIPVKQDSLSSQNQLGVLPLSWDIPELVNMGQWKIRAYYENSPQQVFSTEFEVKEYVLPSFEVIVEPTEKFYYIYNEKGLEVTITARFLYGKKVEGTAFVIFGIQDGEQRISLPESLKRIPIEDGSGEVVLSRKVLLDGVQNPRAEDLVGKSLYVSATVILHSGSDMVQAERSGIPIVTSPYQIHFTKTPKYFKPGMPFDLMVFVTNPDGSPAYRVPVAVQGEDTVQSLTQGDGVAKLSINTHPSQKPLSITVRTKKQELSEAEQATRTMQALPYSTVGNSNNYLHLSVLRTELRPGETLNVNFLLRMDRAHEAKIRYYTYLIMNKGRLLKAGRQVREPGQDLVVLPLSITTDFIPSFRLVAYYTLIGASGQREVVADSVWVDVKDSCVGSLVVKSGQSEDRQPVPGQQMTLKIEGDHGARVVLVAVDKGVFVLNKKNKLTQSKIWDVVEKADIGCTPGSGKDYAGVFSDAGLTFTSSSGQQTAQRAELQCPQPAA
T1 sequence (P01024 749-1663 limits assumed, chain 2 of 2): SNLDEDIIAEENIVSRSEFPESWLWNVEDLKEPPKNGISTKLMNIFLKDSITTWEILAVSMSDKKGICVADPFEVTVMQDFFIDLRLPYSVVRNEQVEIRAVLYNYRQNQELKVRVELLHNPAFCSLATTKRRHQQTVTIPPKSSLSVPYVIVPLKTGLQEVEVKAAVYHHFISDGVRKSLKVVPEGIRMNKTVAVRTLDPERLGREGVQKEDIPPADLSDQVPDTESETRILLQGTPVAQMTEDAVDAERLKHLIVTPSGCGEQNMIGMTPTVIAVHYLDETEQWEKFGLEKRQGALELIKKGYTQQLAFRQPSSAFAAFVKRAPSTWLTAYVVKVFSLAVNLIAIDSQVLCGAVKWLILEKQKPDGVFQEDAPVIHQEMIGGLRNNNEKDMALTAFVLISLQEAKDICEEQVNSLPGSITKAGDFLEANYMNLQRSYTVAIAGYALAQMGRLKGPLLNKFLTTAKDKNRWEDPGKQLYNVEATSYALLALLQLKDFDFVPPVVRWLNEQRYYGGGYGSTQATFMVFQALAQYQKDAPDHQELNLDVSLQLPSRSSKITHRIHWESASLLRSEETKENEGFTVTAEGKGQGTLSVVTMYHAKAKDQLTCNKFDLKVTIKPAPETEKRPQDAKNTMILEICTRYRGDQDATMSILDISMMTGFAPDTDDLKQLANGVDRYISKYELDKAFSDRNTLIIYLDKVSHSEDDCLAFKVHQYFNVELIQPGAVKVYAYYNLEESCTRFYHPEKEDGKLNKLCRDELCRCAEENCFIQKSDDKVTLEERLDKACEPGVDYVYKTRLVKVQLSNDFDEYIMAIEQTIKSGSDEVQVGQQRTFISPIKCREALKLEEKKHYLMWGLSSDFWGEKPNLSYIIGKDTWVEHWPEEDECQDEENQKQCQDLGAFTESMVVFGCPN

Binder | fold increase in binding (probe added after opsonization versus present from the start)
mAb 3E7 (antibody, mouse IgG1, V domains shown, also called mouse IgG1 mAb 3E7; A1488 mAb 3E7) VH: EVQLQESGPSLVKPSQTLSLTCSVTGDSITSDYWNWIRKFPGNKLESMGYITYSGTTYYNPSLKSRISITRDTSKNQYYLQLNSVTSEDTATYYCARGVDYEPSYYFDYWGQGTTLTVSS VL: DIQMTQTTSSLSASLGDRVTISCSASQGISNYLNWYQQKPDGTVKLLIYYTSSLHSGVPSRFSGSGSGTDYSLTISNLEPEDIATYYCQQYSNLPWTFGGGTKLEIK | 200 fold
mAb H17 (antibody, V domains shown, It is a chimeric, de-immunized form of 3E7 with human gamma1 and kappa constant regions, expressed in NS0 cells; also called H117; deimmunized chimeric 3E7) VH: EVQLQESGPSLVKPSQTLSLTCTVSGDSITSDYWNWIRQAPGKGLESMGYITYSGTTYYNPSLKSRVTISRDTSKNQYYMELSSLRSEDTATYYCARGVDYEPSYYFDYWGQGTLVTVSS VL: DIQMTQSPSSLSASVGDRVTITCSASQGISNYLNWYQQKPGKAPKLLIYYTSSLHSGVPSRFSGSGSGTDYSLTISSLQPEDIATYYCQQYSNLPWTFGQGTKVEIK | 200 fold
